Measurements reported in patent publication US20030232742A1, “FAP-activated anti-tumor compounds” (priority 2000, published 2003).
*1 amine or outer side, *2 acyl side, *3 side chain or, on linkers, in order; H or OH if unused. Where no end group is shown, it is not given here. [ ]: non-standard residue; d: D form. The star is where a group is joined. morpholino‑(ethyloxycarbonyl) = morpholino-(ethyloxycarbonyl) N-terminal blocking group, O=C(OCCN1CCOCC1)*; NH(4-MeO-2-naphthyl) = COc1cc(N*)cc2ccccc12; Glutaryl = O=C(CCCC(=O)[*:2])[*:1]; Suc = O=C(CCC(=O)[*:2])[*:1]; 4Amb = NCc1ccc(C(=O)O)cc1; NMeA = CN[C@@H](C)C(=O)O

Legend:
[1] = molecular target: T1, FAP (Homo sapiens, UniProt Q12884); assay: Assay for cleavage of MNA substrates by FAP; type: biochemical; conditions: 1 ng FAP enzyme in 293 cell extract, 20 μl 2.5 mM substrate (a few diluted further), room temperature 1 hour, control 293 extract subtracted
T1 construct: Cell extract from 293 cells stably transfected with FAP prepared as described; expressed in transfected cells; detergent extract used
T1 sequence (Q12884 1-760): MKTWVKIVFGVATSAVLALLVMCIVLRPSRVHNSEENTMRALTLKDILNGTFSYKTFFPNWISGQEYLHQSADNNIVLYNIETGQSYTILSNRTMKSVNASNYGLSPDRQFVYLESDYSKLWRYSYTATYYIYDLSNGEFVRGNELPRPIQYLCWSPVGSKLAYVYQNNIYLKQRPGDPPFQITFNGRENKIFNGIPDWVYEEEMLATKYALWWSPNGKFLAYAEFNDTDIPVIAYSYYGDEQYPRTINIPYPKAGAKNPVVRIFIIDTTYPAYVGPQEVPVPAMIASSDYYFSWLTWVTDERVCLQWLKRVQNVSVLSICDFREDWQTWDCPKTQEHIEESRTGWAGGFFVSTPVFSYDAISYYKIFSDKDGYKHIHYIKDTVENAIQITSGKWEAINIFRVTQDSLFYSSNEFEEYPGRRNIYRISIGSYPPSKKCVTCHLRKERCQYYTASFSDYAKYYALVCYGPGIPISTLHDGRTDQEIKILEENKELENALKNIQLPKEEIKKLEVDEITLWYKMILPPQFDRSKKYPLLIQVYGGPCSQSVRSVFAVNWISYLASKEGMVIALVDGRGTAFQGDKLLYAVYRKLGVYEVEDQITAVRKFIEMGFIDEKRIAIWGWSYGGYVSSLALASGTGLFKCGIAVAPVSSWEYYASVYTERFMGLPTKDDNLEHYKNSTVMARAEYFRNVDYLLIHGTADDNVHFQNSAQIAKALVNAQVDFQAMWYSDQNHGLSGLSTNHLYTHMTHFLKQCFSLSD
Description: To identify preferred FAPα peptide substrates, blocked oligopeptides composed of natural amino carboxylic acids were synthesized and coupled to Proline-4-methoxy-β-napthylamine (Pro-MNA) using methods known to the art (E. Wünsch, Synthese von Peptiden, in Methoden der organischen Chemie, Houben-Weyl (Eds. E. Müller, 0. Bayer), Vol. XV, Part 1 and 2, Georg Thieme Verlag, Stuttgart, 1974). The turnover and cleavage rate have been determined with the aid pf the following assay:
Assay for Cleavage of MNA Substrates by FAP:
Cell extract from 293 cells stably transfected with FAP prepared as described (see Park, et al., Fibroblast Activation Protein, a Dual Specificity Serine Protease expressed in human tumor stromal fibroblasts. (1999) J. Biol. Chem. 36505-12.). A similar extract was also prepared from parental 293 control cells without FAP. The FAP concentration in the FAP-transfected cell extract was estimated by immunoassay and 1 ng enzyme (diluted in buffer A) was used per assay. FAP-negative 293 control cell extract was used at the same dilution (also in buffer A) as a negative control. Substrate was initially dissolved in dimethylformamide at a concentration of 200 mM and diluted in buffer A to a final concentration of 2.5 mM. A few substrates were not soluble at this concentration and had to be diluted further.
10 μl 10% DMSO in buffer A
70 μl diluted FAP cell extract containing 1 ng FAP enzyme (OR control 293 cell extract without FAP)
Mix, incubate at room temperature for 1 hour, and measure fluorescence in Fluorostar fluorimeter at the following wavelengths:
MNA conjugates: Excitation: 355 nm, Emission: 405 nm.
The fluorescence measured in the samples treated with control 293 control cell extracts without FAP is subtracted from the values measured in the samples treated with 1 ng FAP enzyme.

[2] = molecular target: T2, FAPα dimers (Homo sapiens, UniProt Q12884); conditions: membrane overlay assay, WO 97/34927; cited from earlier work
T2 sequence (Q12884 1-760): T1 sequence (Q12884 1-760)

Row | Substance | % Turnover [1] | Cleavage [1] | cleavage of dipeptide coumarin substrate [2]
1 | 1-Methylpyrrol-2-ylcarbonyl Pro-Ala-Gly-Pro-MNA ({1‑methylpyrrol‑2‑ylcarbonyl}-PAGP-{NH(4-MeO-2-naphthyl)}) | 0.13% | 0.33 µM | 
2 | 2-Fluorphenylacetyl-Gly-Pro-MNA | 0.26% | 1.28 µM | 
3 | 2-Morpholino-ethyl-Pro-Ala-Gly-Pro-MNA ({2‑morpholino‑ethyl}-PAGP-{NH(4-MeO-2-naphthyl)}) | 0.26% | 0.64 µM | 
4 | 3 -Pyridylmethyloxycarbonyl-Gly-Pro-MNA | 0.72% | 3.58 µM | 
5 | 3,5-Difluorphenylacetyl-Gly-Pro-MNA | 2.26% | 2.26 µM | 
6 | 3-Carboxyphenylsulfonyl-Pro-Ala-Gly-Pro-MNA ({3‑carboxyphenylsulfonyl}-PAGP-{NH(4-MeO-2-naphthyl)}) | 0.58% | 2.88 µM | 
7 | 3-Fluorphenylacetyl-Gly-Pro-MNA | 0.35% | 1.77 µM | 
8 | 3-Pyridylacetyl-Gly-Pro-MNA | 1.82% | 9.12 µM | 
9 | 4-(2-Aminothiazol-5-yl)-acetyl-Pro-Ala-Gly-Pro-MNA ({(2-aminothiazol-5-yl)‑acetyl}-PAGP-{NH(4-MeO-2-naphthyl)}) | 0.39% | 1.94 µM | 
10 | 4-Amino-Phenylacetyl-Gly-Pro-MNA | 0.6% | 3 µM | 
11 | 4-Aminomethylbenzoyl-Pro-Ala-Gly-Pro-MNA ([4Amb]PAGP-{NH(4-MeO-2-naphthyl)}) | 0.24% | 1.21 µM | 
12 | 4-Aminomethylphenylacetyl-Pro-Ala-Gly-Pro-MNA ({4‑aminomethylphenylacetyl}-PAGP-{NH(4-MeO-2-naphthyl)}) | 0.26% | 1.28 µM | 
13 | 4-Dimethylaminobenzoyl-Pro-Ala-Gly-Pro-MNA ({4‑dimethylaminobenzoyl}-PAGP-{NH(4-MeO-2-naphthyl)}) | 0.37% | 1.85 µM | 
14 | 4-Fluorphenylacetyl-Gly-Pro-MNA | 0.42% | 2.08 µM | 
15 | 4-Hydroxyphenylacetyl-Pro-Ala-Gly-Pro-MNA ({4‑hydroxyphenylacetyl}-PAGP-{NH(4-MeO-2-naphthyl)}) | 0.69% | 1.72 µM | 
16 | 4-Pyridylmethyloxycarbonyl-Gly-Pro-MNA | 1.18% | 5.92 µM | 

Row | Substance | % Turnover [1] | Cleavage [1] | cleavage of dipeptide coumarin substrate [2]
17 | 4-Pyridylmethyloxycarbonyl-Pro-Ala-Gly-Pro-MNA ({4‑pyridylmethyloxycarbonyl}-PAGP-{NH(4-MeO-2-naphthyl)}) | 1.28% | 6.38 µM | 
18 | Ala-Pro-7-amino-4-trifluoromethyl coumarin |  |  | able to cleave
19 | Glutaryl-Pro-Ala-Gly-Pro-MNA (Glutaryl-PAGP-{NH(4-MeO-2-naphthyl)}; SMILES COc1cc(NC(=O)[C@@H]2CCCN2C(=O)CNC(=O)[C@H](C)NC(=O)[C@@H]2CCCN2C(=O)CCCC(=O)O)cc2ccccc12) | 0.3% | 1.48 µM | 
20 | Gly-Pro-7-amino-4-trifluoromethyl coumarin |  |  | able to cleave
21 | Lys-Pro-7-amino-4-trifluoromethyl coumarin |  |  | able to cleave
22 | Malonyl-Pro-Ala-Gly-Pro-MNA (malonyl-PAGP-{NH(4-MeO-2-naphthyl)}) | 0.21% | 1.05 µM | 
23 | Morpholino-(ethyloxycarbonyl)-Pro-Ala-Gly-Pro-MNA ({morpholino‑(ethyloxycarbonyl)}-PAGP-{NH(4-MeO-2-naphthyl)}; SMILES COc1cc(NC(=O)[C@@H]2CCCN2C(=O)CNC(=O)[C@H](C)NC(=O)[C@@H]2CCCN2C(=O)OCCN2CCOCC2)cc2ccccc12) | 0.65% | 3.25 µM | 
24 | Morpholino-carbonyl-Pro-Ala-Gly-Pro-MNA ({morpholino‑carbonyl}-PAGP-{NH(4-MeO-2-naphthyl)}) | 0.6% | 2.99 µM | 
25 | Prazin-2-ylcarbonyl-Pro-Ala-Gly-Pro-MNA ({pyrazin‑2‑ylcarbonyl}-PAGP-{NH(4-MeO-2-naphthyl)}) | 0.56% | 0.7 µM | 
26 | Pyrid-3-ylmethyloxycarbonyl-2-Aze-Ala-Gly-Pro-MNA | 3.42% | 17.1 µM | 
27 | Pyrid-3-ylmethyloxycarbonyl-MeAla-Ala-Gly-Pro-MNA ({pyrid‑3‑ylmethyloxycarbonyl}-[NMeA]AGP-{NH(4-MeO-2-naphthyl)}) [MeAla represents a N-methylalanin moiety] | 1.27% | 6.31 µM | 
28 | Pyrid-3-ylmethyloxycarbonyl-Pip-Ala-Gly-Pro-MNA | 0.56% | 2.78 µM | 
29 | Pyrid-4-ylmethyloxycarbonyl-2-Aze-Ala-Gly-Pro-MNA | 1.61% | 8.07 µM | 
30 | Pyrid-4-ylmethyloxycarbonyl-Pip-Ala-Gly-Pro-MNA | 0.43% | 2.16 µM | 
31 | Pyridin-3-ylmethoxycarbonyl-Pro-Ala-Gly-Pro-MNA ({pyridin‑3‑ylmethoxycarbonyl}-PAGP-{NH(4-MeO-2-naphthyl)}) | 1.77% | 8.86 µM | 
32 | Succinyl-Pro-Ala-Gly-Pro-MNA (Suc-PAGP-{NH(4-MeO-2-naphthyl)}; SMILES COc1cc(NC(=O)[C@@H]2CCCN2C(=O)CNC(=O)[C@H](C)NC(=O)[C@@H]2CCCN2C(=O)CCC(=O)O)cc2ccccc12) | 0.29% | 1.44 µM | 
